Data published in the supplement of paper PMC9170038.

Tested on: MS2 coat protein
Experiment: apparent KD of MS2 coat protein; designed switch direction (-1 OFF switch, 1 ON switch): 1; higher = weaker reporter binding
Outline: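 Three titration conditions were used: no input, 200 uM small-molecule ligand, and an oligonucleotide input. In each, SNAP-549-labelled MS2 coat protein was raised from 0.7 or 1.5 nM, doubling, to 3 µM over designed RNA switches transcribed on Illumina chips by stalled E. coli RNA polymerase. Curve fits of normalised cluster fluorescence gave values whose per-design median over clusters is the apparent KD.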

[1] = Eterna round: R95, input ligand: FMN 200 uM
[2] = Eterna round: R95, input ligand: microRNA oligo, concentration not stated
[3] = Eterna round: R95, input ligand: none
[4] = input ligand: microRNA oligo, concentration not stated

GGUCCAGCCUGAGCUGGACAAAAGCAUGUACAUGAGGAUCACCCAUGUUCAUGUACAAGCUUUUUGCUCGUCUUAUU [salish99_208a_r3_049] (puzzle: Sensor for hsa-mir-208a)
apparent KD of MS2 coat protein [1]: 560 nM | apparent KD of MS2 coat protein [2]: 15.8 nM | apparent KD of MS2 coat protein [3]: 687 nM

AAGAAACAUGAGGAUCACCCAUGUAGAAAUAUGGGAGGAUAUACGAGGACGAAAGUCAAAGUAGAAGGCCUAAGAA [Mat - Same State 1 - Meechl mod - D130] (Eterna round: R96, puzzle: Same State 1)
apparent KD of MS2 coat protein (input ligand: FMN 200 uM): 21.4 nM | apparent KD of MS2 coat protein [4]: 54.5 nM | apparent KD of MS2 coat protein (input ligand: none): 63.8 nM

AAUUAAGAUUGAGGAUAUCACGUCGAAUAGACGUGAGAAGGCGAUCAUAACAUGAGGAUCACCCAUGUAUUACAUGAAUUAAUU [SSNG1/5-B1] (Eterna round: R96, puzzle: Same State NG 1)
apparent KD of MS2 coat protein (input ligand: FMN 200 uM): 30.2 nM | apparent KD of MS2 coat protein [4]: 31.9 nM | apparent KD of MS2 coat protein (input ligand: none): 32.3 nM

GCUAGAAUUAAAGCCAACAUGAGGAUCACCCAUGUAUGUUGGCAGGAUAUCGUUUGCUUUGCAAACGAGAAGGGCUAAACUAGC [JL SSNG3 1.02] (Eterna round: R96, puzzle: Same State NG 3)
apparent KD of MS2 coat protein (input ligand: FMN 200 uM): 114 nM | apparent KD of MS2 coat protein [4]: 121 nM | apparent KD of MS2 coat protein (input ligand: none): 182 nM

GCAGGACAUGAGGAUCACCCAUGUUCAAAAUAUAGAGGAUAUGGAUACGGUAUAUCCGAACCAGAAGGCUACCUGC [SS1 Teenbexe 23] (puzzle: Same State 1)
apparent KD of MS2 coat protein [2]: 13.7 nM

CUUGCCCAGUCAGGAUAUGGGAAAGGAAGUGUACCAGAAGGGACAAGAAAGGACAUGAGGAUCACCCAUGUCGGGCAGGCGAGA [PowerStrip SSNG 1.23] (Eterna round: R96, puzzle: Same State NG 1)
apparent KD of MS2 coat protein (input ligand: FMN 200 uM): 32.8 nM | apparent KD of MS2 coat protein [4]: 82.3 nM | apparent KD of MS2 coat protein (input ligand: none): 97.1 nM

UUGUUUAGAAAUUAACAUGAGGAUCACCCAUGUAUUGGAUCAGAGGAUAUGCAUGUUUGAUUGUAGCAGAAGGCUGAUUGUUGA [JR_SSNG3_Sub029] (Eterna round: R96, puzzle: Same State NG 3)
apparent KD of MS2 coat protein [4]: 37.3 nM

GUGGUCAGACAUGAGGAUCACCCAUGUGGAAUAAAUAAGGAAAAGGAUAUGGAAUAUAGGAUAUACCAGAAGGUUUGGUUGGUG (Eterna round: R96, puzzle: Same State NG 3)
apparent KD of MS2 coat protein [4]: 83 nM

UAUCUCAUGUAAGGAUAUGCAGCCGUUUCGGCUGCAGAAGGUACUAUAAUACAUGAGGAUCACCCAUGUCUCUAUUAUUUAGUU [JL SSNG1 1.45] (Eterna round: R96, puzzle: Same State NG 1)
apparent KD of MS2 coat protein (input ligand: FMN 200 uM): 57.6 nM | apparent KD of MS2 coat protein [4]: 45.7 nM | apparent KD of MS2 coat protein (input ligand: none): 63.8 nM

UGUACCUUCACAGGAUAUCAUGCGAAAAUUGCGUGAGAAGGGUGAAUACUGUCUUACUAAGAGCACAUGAGGAUCACCCAUGUA [SameState NG1 #58] (Eterna round: R96, puzzle: Same State NG 1)
apparent KD of MS2 coat protein (input ligand: FMN 200 uM): 269 nM | apparent KD of MS2 coat protein [4]: 198 nM | apparent KD of MS2 coat protein (input ligand: none): 296 nM

GGAGCUGUUAUAGGAUAUCCCGCGCAUUACGCGGGAGAAGGGUGACGCUCACAUGAGGAUCACCCAUGUGGCGUUCCAAAAUAA [Rate] (Eterna round: R96, puzzle: Same State NG 1)
apparent KD of MS2 coat protein (input ligand: FMN 200 uM): 11.8 nM | apparent KD of MS2 coat protein [4]: 8.12 nM | apparent KD of MS2 coat protein (input ligand: none): 12.4 nM

AGCUAUCGAAAACGAUAGCAAAGGCAUGUACAUGAGGAUCACCCAUGUCAUGUACAAGCUUUUUGCUCGUCUUAAAA [Zipper 23 - 3] (Eterna round: R96, puzzle: Sensor for hsa-mir-208a)
apparent KD of MS2 coat protein (input ligand: FMN 200 uM): 660 nM | apparent KD of MS2 coat protein [4]: 14.1 nM | apparent KD of MS2 coat protein (input ligand: none): 440 nM

UGUUAACAUGAGGAUCACCCAUGUCAAAUGAAUGCAGGAUAUGGGAAGUAAUAAGAUAAACCAGAAGGGCAAGUUG [Altered State 1-17 - Jieux - Same State 1] (puzzle: Same State 1)
apparent KD of MS2 coat protein [1]: 49.4 nM | apparent KD of MS2 coat protein [2]: 162 nM | apparent KD of MS2 coat protein [3]: 311 nM

GCUGGAAAUCACAUGAGGAUCACCCAUGUUCCGGAAACGGCACAGGAUAUCUGUCCGAAAAGGUCAGAGAAGGGUGAAACCAGC [Fiskers NG3ss - 85] (Eterna round: R96, puzzle: Same State NG 3)
apparent KD of MS2 coat protein (input ligand: FMN 200 uM): 303 nM | apparent KD of MS2 coat protein [4]: 56.1 nM | apparent KD of MS2 coat protein (input ligand: none): 105 nM

AACCCAUCGGGAGGAUAUGGCACCUUAUUGGUGCCAGAAGGUCCAACAUGAGGAUCACCCAUGUGGGAGCCGUCGAAAGACGGC [Fiskers NG1ss - 7] (Eterna round: R96, puzzle: Same State NG 1)
apparent KD of MS2 coat protein (input ligand: FMN 200 uM): 270 nM | apparent KD of MS2 coat protein [4]: 66.5 nM | apparent KD of MS2 coat protein (input ligand: none): 293 nM

GUGGUCAGACAUGAGGAUCACCCAUGUGGAAUAAAUAAGGAAAAGGAUAUCGAAUAUAGGAUAUACGAGAAGGUUUGGUUGGUG (Eterna round: R96, puzzle: Same State NG 3)
apparent KD of MS2 coat protein [4]: 73.6 nM

GGGAGAGGUACAGGAUAUGGUGAGGAUCACCCACUAGAAGGGUGCACAUGUGAAUCGGACAUGAGGAUCACCCAUGUUGGGCGU (Eterna round: R96, puzzle: Same State NG 1)
apparent KD of MS2 coat protein (input ligand: FMN 200 uM): 213 nM | apparent KD of MS2 coat protein [4]: 265 nM | apparent KD of MS2 coat protein (input ligand: none): 424 nM

CAGUGCUGUCGAGAGGAUAUGCGGUGAUGGACAUGAGGAUCACCCAUGUUAGCGACAGCAUCACGGCAGAAGGCUCUACCCACUG [Soteed Omei mod 45] (puzzle: Same State 2)
apparent KD of MS2 coat protein [2]: 16.7 nM

UGGCUGGUGCUAGGAUAUGCAUGAGGCCUCCUCGUAGAAGGAGCACGACAUGAGGAUCACCCAUGUGGCCGUCCGUGGGCGGCU [salish99_SSNG1_r04_015] (Eterna round: R96, puzzle: Same State NG 1)
apparent KD of MS2 coat protein (input ligand: FMN 200 uM): 68 nM | apparent KD of MS2 coat protein [4]: 44.8 nM | apparent KD of MS2 coat protein (input ligand: none): 60.1 nM

GUGCAACCGUGUGAGGAUAUCGGUGAAUAGACAUGAGGAUCACCCAUGUCCGAAGCUCGGUUCUCCGAGAAGGCGCACAGUUGCA [Same State 2 - Mod of Erisin v.5] (puzzle: Same State 2)
apparent KD of MS2 coat protein [1]: 42.8 nM | apparent KD of MS2 coat protein [2]: 41.5 nM | apparent KD of MS2 coat protein [3]: 52.4 nM

GACAAUCUAUCUGAGGAUAUCAUGAAAAAAACAUGAGGAUCACCCAUGUGCAGGAAAACUGCAUAUGAGAAGGCAGAUAGAUUGA [salish99_SS2_r3_009] (Eterna round: R96, puzzle: Same State 2)
apparent KD of MS2 coat protein [4]: 453 nM

GUAAAACAUGAGGAUCACCCAUGUCAACAAAGUCGAGGAUAUGGGCAAAUAAAAUAAGAACCAGAAGGCGAAUAAG [salish99_SS1_r3_009] (Eterna round: R96, puzzle: Same State 1)
apparent KD of MS2 coat protein (input ligand: FMN 200 uM): 45.9 nM | apparent KD of MS2 coat protein [4]: 125 nM | apparent KD of MS2 coat protein (input ligand: none): 235 nM

AACCUACAUGAGGAUCACCCAUGUGUCUAAGGCACAGGAUAUCGACAGGCAAGACGCCUGCGAGAAGGGUGACCUA [Erononer] (puzzle: Same State 1)
apparent KD of MS2 coat protein [1]: 58.7 nM | apparent KD of MS2 coat protein [2]: 34.4 nM | apparent KD of MS2 coat protein [3]: 262 nM

UACAAUCUAUCUGAGGAUAUCAUGAAAAAAACAUGAGGAUCACCCAUGUGCAGGAAAACUGCAUAUGAGAAGGCAGAUAGAUUGG [salish99_SS2_r3_007] (puzzle: Same State 2)
apparent KD of MS2 coat protein [1]: 14.3 nM | apparent KD of MS2 coat protein [2]: 3390 nM | apparent KD of MS2 coat protein [3]: 11700 nM

AAAAUUGAAUUACAUCUGCUCGUCAUACAACAUGAGGAUCACCCAUGUAACAUCAAACAACCAACCAAACACAAAUC [Ceeslage] (Eterna round: R96, puzzle: Sensor for hsa-mir-208a)
apparent KD of MS2 coat protein (input ligand: FMN 200 uM): 20.1 nM | apparent KD of MS2 coat protein [4]: 17.5 nM | apparent KD of MS2 coat protein (input ligand: none): 22.3 nM

GGAGGACAUGAGGAUCACCCAUGUGGAUGAUCGCUAGGAUAUGCGUGCAGGAAGAGUGGUGCAGAAGGAGUGGGAU [JR_SS1_Sub048] (puzzle: Same State 1)
apparent KD of MS2 coat protein [2]: 348 nM

UUUGGGUGGCUGGAGGAUAUCCUGGUUGUUACAUGAGGAUCACCCAUGUGCCGCGCGGUGCGCUGGGAGAAGGCUGGCGGCCGUU (puzzle: Same State 2)
apparent KD of MS2 coat protein [2]: 71.8 nM

UUGAAGAAUUAAGGAUAUCGAGUCAAGAUGUAAAACAUGAGGAUCACCCAUGUGGGUUGCGGUAUCGAGAAGGUAAAUUACAAG [Mat - Same State NG 2 - JL mod - D52] (Eterna round: R96, puzzle: Same State NG 2)
apparent KD of MS2 coat protein (input ligand: FMN 200 uM): 24.1 nM | apparent KD of MS2 coat protein [4]: 16.9 nM | apparent KD of MS2 coat protein (input ligand: none): 35.4 nM

GCAUCACAUGAGGAUCACCCAUGUCUUCGGAGCGGAGGAUAUGGUCACUGUAAACAGUGGCCAGAAGGCUGGAUGC [SS1 - Son of Teenbexe v3] (puzzle: Same State 1)
apparent KD of MS2 coat protein [2]: 26 nM

GUGAAGAAUUAAGGAUAUUGAAUACAUAUGUUUAACAUGAGGAUCACCCAUGUGGGUUGCGGUAUCGAGAAGGUAAAUUACUAG [salish99_SSNG2_r04_031] (Eterna round: R96, puzzle: Same State NG 2)
apparent KD of MS2 coat protein (input ligand: FMN 200 uM): 95.5 nM | apparent KD of MS2 coat protein [4]: 89.9 nM | apparent KD of MS2 coat protein (input ligand: none): 118 nM

GAGCCAGUCCGAGGAUAUUCAUAUUAACACAUGAGGAUCACCCAUGUAGGCUCAGAAGAGCCUUGGGAGAAGGCGGACUGGCUC [SS-NG2-LRO14] (Eterna round: R96, puzzle: Same State NG 2)
apparent KD of MS2 coat protein (input ligand: FMN 200 uM): 35.2 nM | apparent KD of MS2 coat protein [4]: 227 nM | apparent KD of MS2 coat protein (input ligand: none): 311 nM

GUGAAGAAUUAAGGAUAUCGAGUCAAGAUGUUAAACAUGAGGAUCACCCAUGUGGGUUGCGGUAUCGAGAAGGUAAAUUACAGG [salish99_SSNG2_r04_502] (Eterna round: R96, puzzle: Same State NG 2)
apparent KD of MS2 coat protein (input ligand: FMN 200 uM): 25.9 nM | apparent KD of MS2 coat protein [4]: 21.1 nM | apparent KD of MS2 coat protein (input ligand: none): 31.7 nM

UUAAUAAUGAUAGGAUAUACAUGAGGAAUUCUCGUAGAAGGAUCAUGACAUGAGGAUCACCCAUGUAACGCUCCGUAGAGCGUA [Mat - Same State NG 1 - JL mod - D36] (Eterna round: R96, puzzle: Same State NG 1)
apparent KD of MS2 coat protein (input ligand: FMN 200 uM): 413 nM | apparent KD of MS2 coat protein [4]: 321 nM | apparent KD of MS2 coat protein (input ligand: none): 447 nM
